The target in assay [1] is BMP-9 receptors expressed on HepG2 cells (ATCC HB8065).
For assay [2] the target is unchanged. Description: 125I-BMP-9 binding to HepG2 cells.
For assay [3] the target is unchanged. Description: Scatchard analysis of 125I-BMP-9 binding to HepG2 cells.
For assay [4] the target is unchanged. Description: 125I-BMP-9 binding to HepG2 cells; the Kd told again in ng/ml.
Assay [5] shares this target. Kind of assay: Scatchard analysis; 2 ng/ml 125I-BMP-9 displaced by unlabelled BMP-9 on HepG2 cells, 20 hours at 4 C.

B1: recombinant human BMP-9, CHO-derived (mature region of human BMP-9 expressed from the murine/human BMP-9 fusion plasmid) (ligand)
chain: TRECSRSCPRTAPQRQVRAVTRRTRMAHVAAGSTLARRKRSAGAGSHCQKTSLRVNFEDIGWDSWIIAPKEYEAYECKGGCFFPLADDVTPTKHAIVQTLVHLKFPTKVG
modifications: iodinated (125I) where used as the tracer; unlabelled where used as the competitor or in the proliferation assay
Molecule B1 came in with a 3H-thymidine incorporation in HepG2 cells in assay [1] of 5 fold. The molecule also showed an ED50 of 3H-thymidine incorporation in HepG2 cells in assay [1] of 10 ng/mL. The results for the Kd in assay [2], in assay [4] and in assay [5] were 0.27 nM, 8 ng/mL and 0.3 nM, respectively. Further, in assay [3], the high affinity receptors per cell (receptors per cell) stood at 10000.
